Data set [1] concerns the molecule itself. The data set is described as follows: SEC-MALS; STIL CCD (aa 717-758) alone, 100 µl injected at 62 to 4000 µM over an S200 10/300 column; 50 mM Tris pH 7.5, 150 mM NaCl, 2 mM DTT, 0.4 ml/min.
Data set [2] concerns the target T1, Drosophila Sak/PLK4 Polo-Box-3 domain (aa 657-745), tag cleaved (Drosophila melanogaster (Fruit fly), UniProt O97143).
T1 chain: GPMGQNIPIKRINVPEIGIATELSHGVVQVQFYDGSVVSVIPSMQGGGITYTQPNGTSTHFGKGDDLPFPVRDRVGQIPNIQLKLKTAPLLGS
The data set is described as follows: analytical gel filtration.

Data set [3] concerns the molecule itself. In words: crystal structure; STIL 726-750 alone, 0.91 Å; sitting drop, 19°C; tetramer (dimer of dimers) generated by crystallographic symmetry.
Data set [4] concerns the molecule itself. In words: SEC-MALS; apo HsPB3 (aa 884-970) alone, 100 µl at 200 µM over a Superdex 200 10/300 column; 50 mM Tris pH 7.5, 150 mM NaCl, 2 mM DTT.

Values joined by “and” are separate entries in the source; they are usually repeats but may differ in a detail not shown here. Identical values can stand only once. Ends that are not written are not given here. Some results are limits rather than exact numbers.

Results on four molecules are retold here after paper PMC5374404, “A key centriole assembly interaction interface between human PLK4 and STIL appears to not be conserved in flies” (Biology Open, 2017).

B1: human STIL coiled-coil domain (aa 717-758), tag cleaved (domain or fragment)
chain: GGSGLSPDAYRFLTEQDRQLRLLQAQIQRLLEAQSLMPCSPKTTA
notes: remnant left at the N-terminus of the CCD after TEV cleavage of the His-lipoyl tag; STIL, human, coiled-coil domain, residues 717-758; also called HsCCD; STIL CCD; source: E. coli C41, purified (Ni-NTA, TEV cleavage, reverse Ni-NTA, size exclusion); not shown: His, N-terminal, cleaved; lipoyl domain (B. stearothermophilus dihydrolipoamide acetyltransferase), N-terminal, cleaved
Regarding B1, the “stoichiometry N” value in data set [1] is ≥ 2 and < 4.

B2: His-lipoyl-tagged Drosophila Ana2 coiled-coil domain (aa 193-229) (protein)
chain: NKSDLAALVSLVESVRHEQQQLRNLCEMILEQQQRAK
modifications: also: His-lipoyl-tagged
Turning to B2, in data set [2], the binding result is “no binding”.

B3: human STIL coiled-coil domain (aa 726-750), tag cleaved (domain or fragment)
chain: GGSLTEQDRQLRLLQAQIQRLLEAQSLM
notes: remnant left at the N-terminus of the CCD after TEV cleavage of the His-lipoyl tag; STIL, human, coiled-coil domain, residues 726-750; also called STIL^726-750; HsCCD; source: E. coli C41, purified (Ni-NTA, TEV cleavage, reverse Ni-NTA, size exclusion); not shown: His, N-terminal, cleaved; lipoyl domain (B. stearothermophilus dihydrolipoamide acetyltransferase), N-terminal, cleaved
Regarding B3, the “stoichiometry N” value in data set [3] came to 4.

B4: human PLK4 Polo-Box-3 domain (aa 884-970), tag cleaved (domain or fragment)
chain: GPMGSAQLLKSVFVKNVGWATQLTSGAVWVQFNDGSQLVVQAGVSSISYTSPNGQTTRYGENEKLPDYIKQKLQCLSSILLMFSNPTPNFH
notes: remnant left at the N-terminus of the PB3 construct after 3C cleavage of the His-MBP tag; PLK4, human, Polo-Box-3 domain, residues 884-970; from an E. coli codon-optimised cDNA (Geneart); also called HsPB3; apoHsPB3; source: E. coli B834, purified (Ni-NTA, 3C cleavage, reverse Ni-NTA, size exclusion); not shown: His, N-terminal, cleaved; MBP, N-terminal, cleaved
In the case of B4, the “stoichiometry N” value in data set [4] worked out at 2.
